Laboratory results taken from US20240034786A1 (WUXI BIOLOGICS IRELAND, published 2024).
Where a chain is given by its changes, count along the chain named. Names may count otherwise. Each block holds one binder with its values, some of them ahead of it.

Key:
[1] = target: T1, Human P-cadherin on cells (human, UniProt P22223 108-829); test: FACS on DU-145 cells
T1 construct: whole, on cells; Endogenous P-cadherin on tumour cell lines; also called hPro1
Experimental: (§1) Binding of the test antibodies to P-cadherin expressed on cells was determined by flow cytometry analysis. […] 1×10⁵ cells/well (100 μL) were added to each well of a 96-well U-plate (Corning, #3799) and centrifuged at 1500 rpm (Eppendorf, #5810R) for 5 minutes before removing the supernatant. Antibodies serially diluted in 1% BSA/1×PBS (Ca+/Mg+) were added at 100 μL/well to the pelleted cells and incubated at 4° C. for 1 hour. Anon-related hIgG1 antibody was used as an isotype control. Cells were washed two times with 180 μL/well of 1% BSA/1×PBS (Ca+/Mg+) by centrifugation at 1500 rpm for 5 minutes at 4° C. Pelleted cells were resuspended in 100 μL/well Alexa647 conjugated Goat anti-human IgG Fc (Jackson, #109-605-098) 1:500 diluted in 1% BSA/1×PBS (Ca+/Mg+) for 30 minutes at 4° C. in the dark. Cells were then washed two times as described above. After the final wash, cells were resuspended in 100 μL 1% BSA/1×PBS (Ca+/Mg+) and fluorescence values were measured with a FACS Canto II cytometer (BD Biosciences). The amount of cell surface bound anti-P-cadherin antibody was assessed by measuring the mean fluorescence (MFI). The FACS raw data were analyzed by FlowJo software, wells containing no antibody or secondary antibody only were used to establish background fluorescence. Binding EC50 values were obtained by the four-parameter non-linear regression analysis using GraphPad Prism6 software.

[2] = target: T1, Human P-cadherin on cells; test: FACS on HCT-116 cells
Experimental: as §1
Binding of the antibodies to human P-cadherin expressed on cells was determined by flow cytometry analysis.

[3] = target: T1, Human P-cadherin on cells; test: FACS on DU-145 cells; remark: listed apart in the source
Experimental: as §1

[4] = target: T1, Human P-cadherin on cells; test: cell-based or functional assay
[5] = target: T1, Human P-cadherin on cells; test: cell-based or functional assay; remark: listed apart in the source

T1 sequence (P22223 108-829): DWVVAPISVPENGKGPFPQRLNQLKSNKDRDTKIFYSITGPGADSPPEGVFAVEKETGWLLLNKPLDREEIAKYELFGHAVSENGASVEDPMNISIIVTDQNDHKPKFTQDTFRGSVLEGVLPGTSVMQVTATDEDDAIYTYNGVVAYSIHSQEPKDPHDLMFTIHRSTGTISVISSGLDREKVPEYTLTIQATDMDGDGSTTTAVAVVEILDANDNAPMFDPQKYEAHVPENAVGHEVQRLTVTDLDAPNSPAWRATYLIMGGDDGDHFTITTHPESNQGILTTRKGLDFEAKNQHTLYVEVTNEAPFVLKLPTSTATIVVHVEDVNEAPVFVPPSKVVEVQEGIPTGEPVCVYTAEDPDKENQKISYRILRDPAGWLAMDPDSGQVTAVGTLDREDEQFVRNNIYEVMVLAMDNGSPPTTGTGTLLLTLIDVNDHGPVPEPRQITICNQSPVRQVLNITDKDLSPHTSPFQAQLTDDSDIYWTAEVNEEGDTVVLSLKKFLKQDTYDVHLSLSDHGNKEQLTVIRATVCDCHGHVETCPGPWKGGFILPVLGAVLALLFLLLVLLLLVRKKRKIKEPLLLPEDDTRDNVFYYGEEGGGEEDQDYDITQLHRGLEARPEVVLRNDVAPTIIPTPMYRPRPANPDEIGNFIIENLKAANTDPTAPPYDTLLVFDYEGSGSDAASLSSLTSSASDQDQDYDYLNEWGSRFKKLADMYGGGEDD

EC50 [1]: 50 pM
Max MFI [1]: 2090
B1: W3195-1.53.1-uIgG1L (antibody)
heavy: not shown
light: SYELTQPPSVSVSPGQTANITCSGDKLGDKFASWYQQKSGQSPVVVIYQDNKRPSGFPERFSGSNSGNTATLTISGTQAMDEADYYCQAWDSSIVVFGGGTKLTVLGQPKAAPSVTLFPPSSEELQANKATLVCLISDFYPGAVTVAWKADSSPVKAGVETTTPSKQSNNKYAASSYLSLTPEQWKSHRSYSCQVTHEGSTVEKTVAPTECS
notes: Fully human IgG1 from an OmniRat hybridoma, converted to human IgG1; also called parental antibody; parental mAb

EC50 [2]: 140 pM
Max MFI [2]: 4180
EC50 [3]: 100 pM
Max MFI [3]: 2290
internalization, Fab-ZAP on HCC-1954, IC50 [4]: 63 pM
internalization, Fab-ZAP on HCC-1954, Max Inh % [4]: 79%
B2: W3195-1.53.1-p6-uIgG1LV320 (antibody, V domains shown)
VH: QVQLQESGPGLVKPSETLSLTCTVSGGSVISDNYYWTWVRQPPGKGLEFIGYIYYRGSTNYNPSLKNRVIISIDTSRNQFSLDLNSVTAADTAVYYCARDRRTGTSLPFDNWGQGTLVTVSS
VL: SYELTQPPSVSVSPGQTAQITCSGDKLGDKFASWYQQKSGQSPVVVIYQDNKRPSGFPERFSGSNSGNTATLTISGTQAMDEADYYCQAWDSSIVVFGGGTKLTVLG
notes: also called W3195-1.53.1-p6-uIgG1V320; W3195-p6-V320 antibody

EC50 [2]: 140 pM
Max MFI [2]: 4190
EC50 [3]: 120 pM
Max MFI [3]: 2160
internalization, Fab-ZAP on HCC-1954, IC50 [4]: 63 pM
internalization, Fab-ZAP on HCC-1954, Max Inh % [4]: 80%
B3: W3195-1.53.1-p4-uIgG1LV320 (antibody, V domains shown)
VH: B2 VH with T105N, S106A
VL: B2 VL
notes: V320 = IgG1 Fc with L234A/L235A; also called W3195-1.53.1-p4-uIgG1V320; W3195-p4-V320 antibody

EC50 [2]: 140 pM
Max MFI [2]: 4230
EC50 [3]: 90 pM
Max MFI [3]: 2280
internalization, Fab-ZAP on HCC-1954, IC50 [4]: 59 pM
internalization, Fab-ZAP on HCC-1954, Max Inh % [4]: 79%
B4: W3195-1.53.1-p7-uIgG1LV320 (antibody, V domains shown)
VH: B2 VH with T105S
VL: B2 VL
notes: also called W3195-1.53.1-p7-uIgG1V320; W3195-p7-V320 antibody

EC50 [2]: 170 pM
Max MFI [2]: 4170
EC50 [3]: 120 pM
Max MFI [3]: 2240
internalization, Fab-ZAP on HCC-1954, IC50 [4]: 58 pM
internalization, Fab-ZAP on HCC-1954, Max Inh % [4]: 82%
B5: W3195-1.53.1-p5-uIgG1LV320 (antibody, V domains shown)
VH: B2 VH with T105Q
VL: B2 VL
notes: also called W3195-1.53.1-p5-uIgG1V320; W3195-p5-V320 antibody

internalization, Fab-ZAP CTG assay on HCC-1954, IC50 [5]: 20 pM
EC50 [1]: 50 pM
Max MFI [1]: 2140
B6: W3195-1.53.1-p3-uIgG1L (antibody)
heavy: not shown
light: B1 light with T21A
notes: also called W3195-p3 antibody
